Data published in the supplement of paper PMC7877785.
± gives the uncertainty stated by the source.

Assay: self-splicing fitness, log relative to wild type (ln ratio); higher = more splicing; Tetrahymena group I intron in knt gene, E. coli kanamycin selection, DiMSum; sequences stand for … in CUCUCU…GGAGGGAAAAGUUAUCAGGCAUGCACCUGGUAGCUAGUCUUUAAACCAAUAGAUUGCAUCGGUUUAAAAGGCAAGACCGUCAAAUUGCGGGAAAGGGGUCAACAGCCGUUCAGUACCAAGUCUCAGGGGAAACUUUGAGAUGGCCUUGCAAAGGGUAUGGUAAUAAGCUGACGGACAUGGUCCUAACCACGCAGCCAAGUCCUAAGUCAACAGAUCUUCUGUUGAUAUGGAUGCAGUUCACAGACUAAAUGUCGGUCGGGGAAGAUGUAUUCUUCUCAUAAGAUAUAGUCGGACCUCUCCUUAAUGGGAGCUAGCGGAUGAAGUGAUGCAACACUGGAGCCGCUGGGAACUAAUUUGUAUGCGAAAGUAUAUUGAUUAGUUUUGGAGUACUCGUGGUCG
In short: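 Six replicate transformations of E. coli BL21(DE3) with a pET-22b(+) library were grown overnight at 37°C or 30°C. The library randomised all eight P1ex-region intron nucleotides, the intron lying in the knt kanamycin-resistance gene, and plates were LB agar with or without 25 μg/mL kanamycin plus 100 μg/mL carbenicillin, 50 μM IPTG and 0.2% rhamnose. Pooled colonies were amplicon-sequenced on an Illumina HiSeq 2500, and fitness is the DiMSum error-weighted combination of wild-type-normalised replicate fold changes, kanamycin versus none.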

| Sequence | self-splicing fitness (ln) (30 °C) | self-splicing fitness (ln) (37 °C) |
| --- | --- | --- |
| GGGGAGCAAUAUUACGGGGC | -2.92 ± 0.37 | -2.2 ± 0.27 |
| GGGGAGCAAUAUUACGGUAU | – | -2.23 ± 0.39 |
| GGGGAGCAAUAUUACGGUUA | -1.34 ± 0.26 | -2.75 ± 0.31 |
| GGGGAGCAAUAUUACGUACA | -1.75 ± 0.2 | -1.76 ± 0.49 |
| GGGGAGCAAUAUUACGUCGG | – | -1.07 ± 0.36 |
| GGGGAGCAAUAUUACGUGCA | -3.32 ± 0.25 | -1.08 ± 0.17 |
| GGGGAGCAAUAUUACGUGCG | -1.61 ± 0.14 | -1.54 ± 0.27 |
| GGGGAGCAAUAUUACGUUCU | -2.67 ± 0.43 | -0.226 ± 0.35 |
| GGGUAGCAAUAUUACGAACA | – | -0.706 ± 0.39 |
| GGGUAGCAAUAUUACGACUG | 0.0705 ± 0.13 | 0.222 ± 0.18 |
| GGGUAGCAAUAUUACGACUU | -1.03 ± 0.13 | 0.345 ± 0.16 |
| GGGUAGCAAUAUUACGCACU | -3.8 ± 0.47 | -0.577 ± 0.29 |
| GGGUAGCAAUAUUACGCCAA | -0.499 ± 0.16 | -0.0896 ± 0.15 |
| GGGUAGCAAUAUUACGCGGU | -3.15 ± 0.21 | -1.4 ± 0.2 |
| GGGUAGCAAUAUUACGCUAG | – | -1.24 ± 0.26 |
| GGGUAGCAAUAUUACGGAAG | -3.46 ± 0.35 | -1.87 ± 0.45 |
| GGGUAGCAAUAUUACGGCGG | -2.35 ± 0.24 | -2.12 ± 0.28 |
| GGGUAGCAAUAUUACGGCGU | -0.56 ± 0.13 | -0.386 ± 0.12 |
| GGGUAGCAAUAUUACGGGGG | -2.97 ± 0.24 | -2.09 ± 0.25 |
| GGGUAGCAAUAUUACGGUAA | -1.28 ± 0.12 | -0.587 ± 0.1 |
| GGGUAGCAAUAUUACGGUAC | -2.04 ± 0.12 | -0.23 ± 0.15 |
| GGGUAGCAAUAUUACGGUGA | -1.74 ± 0.19 | 0.155 ± 0.16 |
| GGGUAGCAAUAUUACGUAAC | -1.07 ± 0.15 | -0.795 ± 0.22 |
| GGGUAGCAAUAUUACGUCAU | -0.733 ± 0.07 | -0.742 ± 0.081 |
| GGGUAGCAAUAUUACGUCCC | -0.987 ± 0.29 | – |

| Sequence | self-splicing fitness (ln) (30 °C) | self-splicing fitness (ln) (37 °C) |
| --- | --- | --- |
| GGGUAGCAAUAUUACGUGAU | -2.64 ± 0.19 | -0.239 ± 0.18 |
| GGGUAGCAAUAUUACGUUGA | -2.44 ± 0.16 | -0.495 ± 0.11 |
| GGUAAGCAAUAUUACGAAAG | -3.68 ± 0.47 | – |
| GGUAAGCAAUAUUACGAAUA | -1.25 ± 0.26 | -0.561 ± 0.27 |
| GGUAAGCAAUAUUACGACAC | -0.00191 ± 0.13 | 0.285 ± 0.19 |
| GGUAAGCAAUAUUACGAGAC | -1.71 ± 0.39 | -0.652 ± 0.27 |
| GGUAAGCAAUAUUACGAUUA | -0.734 ± 0.094 | -0.221 ± 0.11 |
| GGUAAGCAAUAUUACGCUCU | -3.29 ± 0.32 | -2.16 ± 0.35 |
| GGUAAGCAAUAUUACGGAAC | -1.55 ± 0.17 | -0.543 ± 0.21 |
| GGUAAGCAAUAUUACGGACA | -0.53 ± 0.13 | -0.0615 ± 0.15 |
| GGUAAGCAAUAUUACGGCAG | -3.62 ± 0.43 | -2.49 ± 0.45 |
| GGUAAGCAAUAUUACGGUCA | -0.727 ± 0.1 | 0.416 ± 0.11 |
| GGUAAGCAAUAUUACGGUUC | -0.52 ± 0.16 | -0.621 ± 0.17 |
| GGUAAGCAAUAUUACGUCUU | -0.148 ± 0.1 | -0.802 ± 0.12 |
| GGUAAGCAAUAUUACGUUAG | -3.15 ± 0.18 | -1.72 ± 0.19 |
| GGUCAGCAAUAUUACGAAGC | -0.892 ± 0.11 | -0.0665 ± 0.13 |
| GGUCAGCAAUAUUACGACGC | -0.817 ± 0.13 | -0.318 ± 0.18 |
| GGUCAGCAAUAUUACGAGCG | 0.269 ± 0.081 | -0.0123 ± 0.094 |
| GGUCAGCAAUAUUACGAGGG | – | -2.35 ± 0.25 |
| GGUCAGCAAUAUUACGAGUG | -2.56 ± 0.1 | -1.44 ± 0.11 |
| GGUCAGCAAUAUUACGAUUU | 0.377 ± 0.062 | 0.21 ± 0.088 |
| GGUCAGCAAUAUUACGCAGG | – | -3.55 ± 0.3 |
| GGUCAGCAAUAUUACGCCGU | -2.61 ± 0.16 | -0.39 ± 0.15 |
| GGUCAGCAAUAUUACGCUAG | -3.43 ± 0.26 | -2.91 ± 0.34 |
| GGUCAGCAAUAUUACGCUCA | -1.15 ± 0.12 | -0.0519 ± 0.17 |

| Sequence | self-splicing fitness (ln) (30 °C) | self-splicing fitness (ln) (37 °C) |
| --- | --- | --- |
| GGUCAGCAAUAUUACGGACA | -0.754 ± 0.19 | -0.179 ± 0.17 |
| GGUCAGCAAUAUUACGGGUC | -1.54 ± 0.13 | -1.58 ± 0.16 |
| GGUCAGCAAUAUUACGGUGA | -0.695 ± 0.074 | -1 ± 0.11 |
| GGUCAGCAAUAUUACGUCAC | – | -1.77 ± 0.39 |
| GGUCAGCAAUAUUACGUCCU | -2.63 ± 0.31 | -1.85 ± 0.29 |
| GGUCAGCAAUAUUACGUGGU | -2.54 ± 0.18 | -2.17 ± 0.23 |
| GGUCAGCAAUAUUACGUUUU | -0.899 ± 0.073 | -0.202 ± 0.078 |
| GGUGAGCAAUAUUACGAAAU | -2.21 ± 0.31 | -2.78 ± 0.38 |
| GGUGAGCAAUAUUACGAAUC | – | -2.04 ± 0.4 |
| GGUGAGCAAUAUUACGACUC | -1.13 ± 0.15 | -0.634 ± 0.22 |
| GGUGAGCAAUAUUACGAGGC | – | -0.336 ± 0.33 |
| GGUGAGCAAUAUUACGAGUU | -2.39 ± 0.27 | -0.657 ± 0.16 |
| GGUGAGCAAUAUUACGAUCU | -0.331 ± 0.18 | -0.809 ± 0.27 |
| GGUGAGCAAUAUUACGCAAG | – | 0.418 ± 0.23 |
| GGUGAGCAAUAUUACGCAGA | -2.51 ± 0.31 | -2.52 ± 0.33 |
| GGUGAGCAAUAUUACGCUUC | – | -2.51 ± 0.39 |
| GGUGAGCAAUAUUACGGGCU | -2.81 ± 0.19 | -2.67 ± 0.44 |
| GGUGAGCAAUAUUACGGGGC | – | -1.01 ± 0.32 |
| GGUGAGCAAUAUUACGUACG | -0.28 ± 0.23 | -0.434 ± 0.25 |
| GGUGAGCAAUAUUACGUAUA | -3.76 ± 0.29 | -3.25 ± 0.37 |
| GGUGAGCAAUAUUACGUCCA | -2.91 ± 0.24 | -2.07 ± 0.096 |
| GGUGAGCAAUAUUACGUGAG | -2.73 ± 0.19 | -1.76 ± 0.21 |
| GGUGAGCAAUAUUACGUGCA | -0.986 ± 0.12 | -0.496 ± 0.14 |
| GGUGAGCAAUAUUACGUGUC | -3.03 ± 0.26 | -1.99 ± 0.32 |
| GGUGAGCAAUAUUACGUUAC | -3.12 ± 0.47 | -0.718 ± 0.24 |

| Sequence | self-splicing fitness (ln) (30 °C) | self-splicing fitness (ln) (37 °C) |
| --- | --- | --- |
| GGUUAGCAAUAUUACGACGA | -1.15 ± 0.18 | 0.349 ± 0.21 |
| GGUUAGCAAUAUUACGAGCU | -2.61 ± 0.29 | -1.69 ± 0.32 |
| GGUUAGCAAUAUUACGAUAC | -0.314 ± 0.22 | -0.0363 ± 0.19 |
| GGUUAGCAAUAUUACGAUAU | -0.423 ± 0.1 | -0.137 ± 0.13 |
| GGUUAGCAAUAUUACGCAUA | -0.622 ± 0.12 | -0.182 ± 0.14 |
| GGUUAGCAAUAUUACGCCAA | -1.42 ± 0.34 | -2.43 ± 0.33 |
| GGUUAGCAAUAUUACGCGGA | -1.4 ± 0.31 | -1.34 ± 0.23 |
| GGUUAGCAAUAUUACGGAAU | -2.21 ± 0.25 | -1.01 ± 0.25 |
| GGUUAGCAAUAUUACGGGCC | -2.52 ± 0.27 | -1.47 ± 0.29 |
| GGUUAGCAAUAUUACGGGGA | -2.05 ± 0.25 | -2.49 ± 0.29 |
| GGUUAGCAAUAUUACGGUCU | -0.263 ± 0.12 | 0.162 ± 0.15 |
| GGUUAGCAAUAUUACGGUGA | -1.49 ± 0.13 | -0.0195 ± 0.13 |
| GGUUAGCAAUAUUACGGUUC | -0.571 ± 0.086 | -0.114 ± 0.11 |
| GGUUAGCAAUAUUACGUACG | -0.392 ± 0.14 | 0.0535 ± 0.18 |
| GGUUAGCAAUAUUACGUAUG | -3.18 ± 0.17 | -0.52 ± 0.15 |
| GGUUAGCAAUAUUACGUCCU | -1.2 ± 0.12 | -0.367 ± 0.12 |
| GGUUAGCAAUAUUACGUUUC | -3.04 ± 0.21 | -0.645 ± 0.18 |
| GUAAAGCAAUAUUACGACUU | 0.245 ± 0.1 | 0.464 ± 0.12 |
| GUAAAGCAAUAUUACGAGUA | -1.11 ± 0.12 | -0.624 ± 0.14 |
| GUAAAGCAAUAUUACGCAUA | -1.1 ± 0.098 | -0.728 ± 0.11 |
| GUAAAGCAAUAUUACGCCCU | 0.35 ± 0.081 | 0.185 ± 0.081 |
| GUAAAGCAAUAUUACGCUAC | -4.2 ± 0.32 | -1.87 ± 0.37 |
| GUAAAGCAAUAUUACGCUUG | -2.17 ± 0.15 | -1.12 ± 0.17 |
| GUAAAGCAAUAUUACGGACC | -1.15 ± 0.13 | -0.652 ± 0.24 |
